# Laboratory results published in patent publication US20230212587A1, “Mutant Hydroxyphenylpyruvate Dioxygenase Polypeptide, Encoding Gene Thereof and Use Therefor” (Beijing Dabeinong Biotechnology Co., Ltd., priority 2019, published 2023).
# Substitutions are numbered along the chain they refer to.
# B1: F372G (protein, listed as Avena sativa)
# chain: MPPTPATATGAAAAAVTPEHAARSFPRVVRVNPRSDRFPVLSFHHVELWCADAASAAGRFSFALGAPLAARSDLSTGNSAHASLLLRSGALAFLFTAPYAPPPQEAATAAATASIPSFSADAARTFAAAHGLAVRSVGVRVADAAEAFRVSVAGGARPAFAPADLGHGFGLAEVELYGDVVLRFVSYPDETDLPFLPGFERVSSPGAVDYGLTRFDHVVGNVPEMAPVIDYMKGFLGFHEFAEFTAEDVGTTESGLNSVVLANNSEAVLLPLNEPVHGTKRRSQIQTYLEYHGGPGVQHIALASNDVLRTLREMRARTPMGGFEFMAPPQAKYYEGVRRIAGDVLSEEQIKECQELGVLVDRDDQGVLLQIGTKPVGDRPTFFLEMIQRIGCMEKDEVGQEYQKGGCGGFGKGNFSELFKSIEDYEKSLEVKQSVVAQKS
# modifications: AsHPPD Amido Acid Sequence
# B2: F372V (protein, listed as Avena sativa)
# chain: B1 chain with G372V
# modifications: AsHPPD Amido Acid Sequence
# B3: F372I (protein, listed as Avena sativa)
# chain: B1 chain with G372I
# modifications: AsHPPD Amido Acid Sequence
# B4: F372Q (protein, listed as Avena sativa)
# chain: B1 chain with G372Q
# modifications: AsHPPD Amido Acid Sequence
# B5: F372N (protein, listed as Avena sativa)
# chain: B1 chain with G372N
# modifications: AsHPPD Amido Acid Sequence
# System: Arabidopsis thaliana T1 plants
# Assay: Topramezone tolerance of transgenic Arabidopsis thaliana T1 plants (pesticide damage grade by bleached leaf area, score, resistance evaluation)
# Type: in vivo
# Design: score: scale not given here
# Details: for tolerance to topramezone, in words: saturation mutation of HPPD from Avena sativa source (label F372X = AsHPPDm-F372X), topramezone 25, 50, 100 g ai/ha; for Resistance Grade / score / Grade 0 / Grade 1 / Grade 2 / Grade 3: HPPD from Avena sativa source; for Grade 0 / Grade 1 / Grade 2 / Grade 3: number of plants
# Source text: The Arabidopsisthaliana T1 plants into which the AsHPPDm-F372A-02 nucleotide sequence was introduced, Arabidopsis thaliana T1 plants into which the AsHPPD-02 nucleotide sequence was introduced and wild-type Arabidopsisthaliana plants (18 days after sowing) were sprayed with topramezone at four different concentrations, i.e., 25 g ai/ha (one-fold field concentration, 1×), 50 g ai/ha (two-fold field concentration, 2×), 100 g ai/ha (four-fold field concentration, 4×) and 0 g ai/ha (water, 0×) to determine the tolerance of Arabidopsisthaliana to the herbicide. The degree of damage caused by the herbicide was measured for each plant according to the proportion of bleached leaf area (the proportion of bleached leaf area=bleached leaf area/total leaf area×100%) 7 days after spraying (7 DAT): the case where there is basically no bleached phenotype is defined as grade 0, the case where the proportion of bleached leaf area is less than 50% is defined as grade 1,the case where the proportion of bleached leaf area is more than 50% is defined as grade 2, and the case where the proportion of bleached leaf area is 100% grade is defined as grade 3.
# (§1) According to the method as described above in point 6 of Example 1, the aforementioned Arabidopsisthaliana T1 plants and wild-type Arabidopsisthaliana plants (18 days after sowing) were sprayed with topramezone at three different concentrations respectively, i.e., 25 g ai/ha (one-fold field concentration, 1×), 100 g ai/ha (four-fold field concentration, 4×) and 0 g ai/ha(water, 0×) to detect the tolerance of Arabidopsisthaliana to the herbicide.
# as §1, with “1x),” for “1×),”, “4x)” for “4×)”, “ai/ha (water, 0x)” for “ai/ha(water, 0×)”
# According to the method as described above in point 6 of Example 1, the above-mentioned Arabidopsisthaliana T1 plants, Arabidopsisthaliana T1 plants into which the AsHPPD-02 nucleotide sequence was introduced, Arabidopsisthaliana T1 plants into which the PfHPPD-02 nucleotide sequence was introduced, and wild-type Arabidopsisthaliana plants (18 days after sowing) were sprayed with topramezone at four different concentrations respectively, that is, 25 g ai/ha (one-fold field concentration, 1x), 50 g ai/ha (two-fold field concentration, 2x), 100 g ai/ha (four-fold field concentration, 4x) and 0 g ai/ha (water, Ox) to detect the herbicide tolerance of Arabidopsisthaliana.
# According to the method as described in point 6 of Example 1, the above-mentioned Arabidopsisthaliana T1 plants and wild-type Arabidopsisthaliana plants (18 days after sowing) were sprayed with topramezone at two different concentrations respectively, that is, 25 g ai/ha (one-fold field concentration, 1x) and 100 g ai/ha (four-fold field concentration, 4x) to detect the herbicide tolerance of Arabidopsisthaliana,. […]
Molecule,"tolerance to topramezone, in words",Resistance Grade (topramezone 25 g ai/ha (1x)),score (topramezone 25 g ai/ha (1x)),Grade 0 (topramezone 25 g ai/ha (1x)),Grade 1 (topramezone 25 g ai/ha (1x)),Grade 2 (topramezone 25 g ai/ha (1x)),Grade 3 (topramezone 25 g ai/ha (1x)),Resistance Grade (topramezone 50 g ai/ha (2x)),score (topramezone 50 g ai/ha (2x)),Grade 0 (topramezone 50 g ai/ha (2x)),Grade 1 (topramezone 50 g ai/ha (2x)),Grade 2 (topramezone 50 g ai/ha (2x)),Grade 3 (topramezone 50 g ai/ha (2x)),Resistance Grade (topramezone 100 g ai/ha (4x)),score (topramezone 100 g ai/ha (4x)),Grade 0 (topramezone 100 g ai/ha (4x)),Grade 1 (topramezone 100 g ai/ha (4x)),Grade 2 (topramezone 100 g ai/ha (4x)),Grade 3 (topramezone 100 g ai/ha (4x))
B1,better tolerance,Highly resistant,0,20,0,0,0,Highly resistant,0,20,0,0,0,Highly resistant,0,20,0,0,0
B2,better tolerance,Highly resistant,0,20,0,0,0,Highly resistant,0,20,0,0,0,Highly resistant,0,20,0,0,0
B3,better tolerance,,,,,,,,,,,,,,,,,,
B4,better tolerance,Highly resistant,0,20,0,0,0,Highly resistant,0,20,0,0,0,Highly resistant,0,20,0,0,0
B5,better tolerance,Highly resistant,7,18,0,2,0,Highly resistant,0,20,0,0,0,Highly resistant,0,20,0,0,0
